Data from the supplement of paper PMC10126150.
± gives the standard deviation of the averaged measurements.

Tested on: ATP
Assay: switch fluorescence ratio, 500 uM ATP over buffer (Cy3 cluster intensity, sum of 5 cycles each) (fold (ratio)); higher = stronger signal-on switching upon ATP binding; sequences stand for … in TCGTCGGCAGCGTCAGATGTGTATAAGAGACAGTTTTTTTTTTTTTTTTTTTTTTTTT…TC
Settings: aptamer strand: ATP DNA aptamer (quencher-CACCTGGGGGAGTATTGCGGAGGAAGG + anchor), 100 nM annealed; ATP concentration: 500 uM
Outline: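 The fluorescence ratio divides summed target-cycle Cy3 intensity by summed buffer-cycle Cy3 intensity for each cluster and is averaged per switch-domain sequence. Cy3-labelled switching-strand clusters on a modified Illumina MiSeq flow-cell were annealed to 100 nM quencher-labelled ATP aptamer, then imaged in selection buffer and again after 15 min with 500 uM ATP at 22 °C. Five such cycles were run, with NaOH stripping and re-annealing between them, and clusters outside 100-1000 RFU were excluded.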
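Note: ATP exposure 15 min at 22 °C before imaging.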

| Sequence | switch fluorescence ratio |
| --- | --- |
| ACGGAGGGTT | 0.992 ± 0.01 |
| CCAGGTCCGC | 1.455 ± 0.0073 |
| TGCAAGGCGC | 1.23 ± 0.24 |
| TTCGACGCTA | 1.33 ± 0.57 |
| TGGGGGTGTT | 1 ± 0.032 |
| GTTTATTGAA | 1.024 ± 0.0036 |
| TAACACGAAT | 1.01 ± 0.0083 |
| CCGCCAGGTC | 2.55 ± 0.13 |
| GGAAGGCATA | 0.9829 ± 0.0096 |
| GGCGGGGGAC | 0.987 ± 0.057 |
| GAAGTAGTAA | 1.02 ± 0.03 |
| CAATATGTTG | 1.02 ± 0.035 |
| ATCTTGGTTG | 1 ± 0.026 |
| TTTGATAGAT | 0.977 ± 0.012 |
| CAATGTGTCG | 1.07 ± 0.055 |
| TTATGGTCTG | 0.984 ± 0.038 |
| AAGTTTTGTA | 0.985 ± 0.05 |
| CTGATGCCGT | 1.08 ± 0.057 |
| CAAGGATTTT | 0.9929 ± 0.0012 |
| GTTCATTGTT | 0.941 ± 0.017 |
| TCTGTTTTTG | 1.01 ± 0.063 |
| AAGGCAGGGG | 1.05 ± 0.044 |
| TTGTGTGGGC | 1.04 ± 0.047 |
| CCGTCTCTCC | 1.73 ± 0.093 |
| TGGGGTCGGG | 1 ± 0.022 |

| Sequence | switch fluorescence ratio |
| --- | --- |
| GTTGGTTAAT | 0.966 ± 0.054 |
| TAGTTTTCAT | 1.021 ± 0.01 |
| GTAGGAGGTG | 1.07 ± 0.019 |
| TTGGATAAAC | 1.03 ± 0.053 |
| GCAAGAACAG | 1.04 ± 0.036 |
| TTGTTTTTTC | 0.986 ± 0.026 |
| CCTATTATTG | 0.98 ± 0.028 |
| GTGAGGGGGT | 1.06 ± 0.14 |
| AGGAGTTTGC | 1.068 ± 0.0073 |
| TCGGACGTCG | 1.07 ± 0.019 |
| TAGTTTTCGC | 1 ± 0.031 |
| GGCCCCTATT | 1.023 ± 0.01 |
| TTATGGGCGA | 1 ± 0.046 |
| GGGTTTGAT | 1.03 ± 0.025 |
| TTTTTTTAAG | 1 ± 0.018 |
| GCAATGTAGG | 1.04 ± 0.03 |
| TTGATTGATA | 1 ± 0.028 |
| TTTTGTAGTG | 0.988 ± 0.042 |
| GGGGCTATTT | 1.01 ± 0.066 |
| GGGTGAGCTT | 1.01 ± 0.029 |
| TGCTTGGGTA | 1.01 ± 0.021 |
| CGCGTGAAGA | 1.12 ± 0.11 |
| ACACGTAACT | 1.359 ± 0.0099 |
| TTGGACGCAC | 2.08 ± 0.12 |
| AATTGTGGGC | 0.978 ± 0.047 |

| Sequence | switch fluorescence ratio |
| --- | --- |
| TCACAGTTGG | 1.032 ± 0.0034 |
| ATGGGCGGCC | 1.0476 ± 0.00053 |
| AAATCTCGT | 0.995 ± 0.058 |
| TTTGAGCTTT | 1.02 ± 0.018 |
| CATGGCACTT | 1.009 ± 0.0041 |
| GATTTTTATC | 1.023 ± 0.0031 |
| ATTGGCAGTG | 1 ± 0.021 |
| TAATTTTGGG | 0.999 ± 0.047 |
| AATTTATAAT | 1.01 ± 0.036 |
| AAGCCGAGGG | 1.017 ± 0.0022 |
| AGAAATTATA | 1.001 ± 0.0073 |
| GTTGCAGTGT | 1.02 ± 0.037 |
| TCCTTTAGGT | 0.993 ± 0.053 |
| TCATAAATTT | 1.01 ± 0.018 |
| GCTAGGGGGT | 1.02 ± 0.09 |
| TTTTTTCGAA | 0.998 ± 0.032 |
| TTTGGTAATT | 1.03 ± 0.034 |
| CAAGCATCGC | 0.94962 ± 2.2e-05 |
| GCTATTGATC | 1.02 ± 0.021 |
| AGGGCAGCTT | 1.06 ± 0.025 |
| AAGGGGCTTC | 0.985 ± 0.033 |
| AGGGATCTGC | 0.966 ± 0.028 |
| AAGAGTAGGA | 0.989 ± 0.0099 |
| GTTTATGGAC | 1.02 ± 0.011 |
| TGTGAGTTTG | 1.03 ± 0.013 |

| Sequence | switch fluorescence ratio |
| --- | --- |
| ACTATAAGAA | 1.03 ± 0.014 |
| AATTCGTGAA | 1.01 ± 0.013 |
| CGGGACTCTT | 0.995 ± 0.017 |
| TATGTTGTAC | 1.052 ± 0.0086 |
| GGAATGTTAG | 0.986 ± 0.012 |
| TCCACCGGCT | 1.03 ± 0.052 |
| GGTAGAGACT | 0.9755 ± 0.0023 |
| CGGCTTACAC | 1.12 ± 0.017 |
| TAGGTTTGGG | 0.962 ± 0.025 |
| TTTGAGTAGG | 0.992 ± 0.038 |
| ACTATATTTT | 1.04 ± 0.0067 |
| CCGTAGAATT | 1.68 ± 0.046 |
| TTGTAGTATC | 1 ± 0.025 |
| TGGACTTATA | 1.02 ± 0.012 |
| CCGTTGTCTT | 1.03 ± 0.025 |
| TTTTACGTCA | 1.21 ± 0.073 |
| TGCGGGTAGG | 1.03 ± 0.012 |
| CAATGGGATA | 1.02 ± 0.032 |
| AATCTGTCGT | 0.982 ± 0.054 |
| AAGTGGATCT | 0.988 ± 0.078 |
| CAAGTTGATG | 0.982 ± 0.057 |
| TTTTGAATGG | 1.02 ± 0.04 |
| TGATTTTGGA | 0.974 ± 0.012 |
| GATACTGGGT | 0.995 ± 0.046 |
| GACCGGGCTC | 0.97643 ± 0.00079 |

| Sequence | switch fluorescence ratio |
| --- | --- |
| ATGGTCCCTG | 0.997 ± 0.035 |
| TCAGGAATTT | 1.68 ± 1.2 |
| ATGGTATAAC | 1.01 ± 0.015 |
| ACTGGGATGG | 1.031 ± 0.0089 |
| TGAATAGGGT | 1.03 ± 0.073 |
| TTCGCGGGTT | 0.97 ± 0.01 |
| CGATCGGGAT | 1.12 ± 0.13 |
| TAGGGCTCAG | 0.9928 ± 0.0098 |
| ACGAGGCGTA | 1.04 ± 0.0046 |
| GCGGCGAGGA | 1.02 ± 0.038 |
| TATGATCTGT | 0.979 ± 0.021 |
| ATAGGGTTGC | 1.01 ± 0.014 |
| ACGGCTTACT | 1.208 ± 0.0019 |
| GGGTTGGAGG | 0.995 ± 0.021 |
| GTATGAGTCG | 1.01 ± 0.085 |
| AAGTCGGGAC | 1.08 ± 0.039 |
| CAGTCCGGTC | 1.06 ± 0.014 |
| ATTTTAATAT | 0.987 ± 0.03 |
| ATGTTGGAAT | 1.04 ± 0.028 |
| AAAGCTTTTC | 1.07 ± 0.01 |
| ACTTATGGGA | 1.02 ± 0.019 |
| CATGACTCCC | 2.01 ± 0.13 |
| CTATCTTTAG | 0.9891 ± 0.0043 |
| CGGTAATTTT | 0.975 ± 0.021 |
| TTGGGTATGT | 1.01 ± 0.038 |

| Sequence | switch fluorescence ratio |
| --- | --- |
| TCCTAGAAC | 0.997 ± 0.026 |
| TACCAGTGAT | 1 ± 0.018 |
| GGGTTCACGG | 1 ± 0.014 |
| TTGAACGCGG | 1.05 ± 0.018 |
| ACAGGGGGTA | 1.02 ± 0.024 |
| TTAAGATGTA | 1.01 ± 0.039 |
| TAGTAGGCCA | 1.01 ± 0.055 |
| GGTTTTTAAA | 1 ± 0.062 |
| ACGGCGCTTA | 1.19 ± 0.054 |
| AAGGGGTTAG | 0.975 ± 0.016 |
| CAATTACTTT | 1.06 ± 0.026 |
| CAGGCAGCAT | 1.32 ± 0.089 |
| TAGGTGGGAT | 1.05 ± 0.038 |
| GGTCGGTAGA | 0.998 ± 0.015 |
| GGATAAGGCC | 1 ± 0.012 |
| ACTTGTGGTC | 0.9952 ± 0.0084 |
| CCTGGGAGCA | 1.08 ± 0.057 |
| TTATAGGTCT | 1 ± 0.072 |
| CGGTGTAAAA | 0.961 ± 0.011 |
| AGGGGTATTA | 1.002 ± 0.01 |
| GTTGGTTGGA | 0.983 ± 0.022 |
| ATAGGTACGC | 1.04 ± 0.036 |
| GATTCAGGGG | 1.04 ± 0.026 |
| GATTTTTAGG | 0.964 ± 0.015 |
| GTTGGAGGTT | 0.9921 ± 0.0052 |

| Sequence | switch fluorescence ratio |
| --- | --- |
| ACGTGGTATG | 1.02 ± 0.015 |
| TACGGGAGGG | 1.07 ± 0.022 |
| GGGCCGGGTT | 1.01 ± 0.021 |
| GGGGGTAAAA | 1.01 ± 0.029 |
| AAGCTGGTGT | 1.014 ± 0.0075 |
| AATCTATCCC | 1.027 ± 0.0042 |
| GCAGTAGCAA | 1.08 ± 0.03 |
| CGAGGCCTGT | 1.02 ± 0.022 |
| AGGTTCCTAG | 0.9775 ± 0.0049 |
| ATTGTGCCTG | 1.083 ± 0.0093 |
| GTTTAACTAT | 1.015 ± 0.0038 |
| CGGTAAATAA | 1.01 ± 0.021 |
| TAGCAACGGG | 1.03 ± 0.015 |
| TCGTCGTACG | 1.02 ± 0.021 |
| TTTTTGTTGC | 1.02 ± 0.02 |
| ATGGGAGTTT | 1.01 ± 0.01 |
| TTAGGCTTT | 0.9374 ± 0.0049 |
| GGGACGGCGG | 1.004 ± 0.0087 |
| TTGTGAGGGG | 0.988 ± 0.022 |
| CGTTAAGAAA | 0.994 ± 0.016 |
| TAGGTAGGAG | 1 ± 0.031 |
| TGATTCGGTT | 1.037 ± 0.0089 |
| TGAAAGGCTC | 1.1 ± 0.14 |
| CGGGGGATTT | 1.01 ± 0.014 |
| TGAAAGTTGT | 1.02 ± 0.029 |

| Sequence | switch fluorescence ratio |
| --- | --- |
| GTTGGATTTC | 1.01 ± 0.047 |
| GTTCTCCTT | 1.07 ± 0.1 |
| CTGATTTTCC | 1.01 ± 0.061 |
| GGTATGGGAT | 1.022 ± 0.0059 |
| TGACGTTTGC | 1.03 ± 0.12 |
| TGTGATGGGC | 0.989 ± 0.026 |
| ATATATGGGA | 0.973 ± 0.022 |
| GGCGGATTGG | 1.02 ± 0.015 |
| CGTAAGCGTA | 1.04 ± 0.032 |
| GGTGAGGGTG | 1.1 ± 0.013 |
| AACCTTTCTG | 1.5 ± 0.021 |
| GGTTTCTTGA | 1.02 ± 0.021 |
| AATTGGGTTA | 0.976 ± 0.023 |
| GGTTGTGGCA | 1.03 ± 0.011 |
| TCGATTTGAT | 0.98541 ± 0.00062 |
| GCTGATGTAT | 0.999 ± 0.026 |
| GGAAGCGACA | 0.988 ± 0.037 |
| ACTCGTTAAA | 0.978 ± 0.014 |
| AAGAAATTTT | 0.984 ± 0.012 |
| TGTCAGGGGG | 1.01 ± 0.023 |
| TTTGTATAGT | 1.003 ± 0.0019 |
| AGTGTGAGGC | 1.03 ± 0.028 |
| GGGGGCTTGG | 0.998 ± 0.032 |
| TGGGGAACGG | 0.981 ± 0.031 |
| TTATGAATAG | 0.99 ± 0.011 |
